The target of the test is Respiratory syncytial virus nucleoprotein N, R234A mutant (human respiratory syncytial virus) (UniProt P03418).

Among the data in publication PMC3749527 are polymerase activity (viral RNA synthesis) in an HRSV plasmid-based minigenome luciferase assay in BSRT7/5 cells, compared to wt N values, retold here.

“Respiratory syncytial virus nucleoprotein N, R234A mutant (from UniProt P03418 1-391) (natural protein)”: the polymerase activity (viral RNA synthesis) in an HRSV plasmid-based minigenome luciferase assay in BSRT7/5 cells, compared to wt N is 68 % of wt N.
